Data from patent publication US20120135923A1, “Use of Melanocortins to Treat Dyslipidemia” (IPSEN PHARMA, S.A.S., priority 2009, published 2012).
Bridge positions count the residues as written; N and C are the ends. Square brackets hold non-standard residues; d marks the D form. 1Nal = N[C@@H](Cc1cccc2ccccc12)C(=O)O; 2Nal = N[C@@H](Cc1ccc2ccccc2c1)C(=O)O; d2Nal = N[C@H](Cc1ccc2ccccc2c1)C(=O)O

What was measured:
Assay in all cases: cell-based or functional assay
[1] = target: hMC1-R (human) (UniProt Q01726)
[2] = target: hMC3-R (human) (UniProt P41968)
[3] = target: hMC4-R (human) (UniProt P32245)
[4] = target: hMC5-R (human) (UniProt P33032)
Sequence of hMC5-R (human) (P33032 whole entry): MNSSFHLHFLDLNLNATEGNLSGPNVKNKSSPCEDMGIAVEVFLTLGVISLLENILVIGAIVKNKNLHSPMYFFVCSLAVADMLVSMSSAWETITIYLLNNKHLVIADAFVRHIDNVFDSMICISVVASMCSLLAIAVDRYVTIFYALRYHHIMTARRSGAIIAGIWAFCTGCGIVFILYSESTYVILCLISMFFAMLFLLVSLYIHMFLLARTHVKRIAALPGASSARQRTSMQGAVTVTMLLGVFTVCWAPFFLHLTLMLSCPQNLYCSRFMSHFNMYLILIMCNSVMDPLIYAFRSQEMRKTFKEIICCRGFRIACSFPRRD

Sequence of hMC3-R (human) (P41968 whole entry): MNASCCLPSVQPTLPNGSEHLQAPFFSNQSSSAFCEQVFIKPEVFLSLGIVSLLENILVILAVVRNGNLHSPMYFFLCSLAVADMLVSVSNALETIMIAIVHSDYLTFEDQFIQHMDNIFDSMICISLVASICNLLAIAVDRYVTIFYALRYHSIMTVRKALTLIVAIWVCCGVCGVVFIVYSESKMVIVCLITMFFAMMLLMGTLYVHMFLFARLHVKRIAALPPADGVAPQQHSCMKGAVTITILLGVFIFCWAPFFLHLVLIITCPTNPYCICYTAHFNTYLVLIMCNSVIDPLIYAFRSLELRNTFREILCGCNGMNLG
Sequence of hMC4-R (human) (P32245 whole entry): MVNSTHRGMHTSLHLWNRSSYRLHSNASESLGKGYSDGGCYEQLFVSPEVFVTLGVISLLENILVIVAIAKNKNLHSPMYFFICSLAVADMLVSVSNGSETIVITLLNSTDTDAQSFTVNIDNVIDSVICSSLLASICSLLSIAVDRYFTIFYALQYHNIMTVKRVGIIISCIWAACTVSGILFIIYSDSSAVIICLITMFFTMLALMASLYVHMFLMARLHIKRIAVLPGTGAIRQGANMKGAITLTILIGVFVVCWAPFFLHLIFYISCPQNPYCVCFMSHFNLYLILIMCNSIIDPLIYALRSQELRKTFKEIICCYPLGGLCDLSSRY
Sequence of hMC1-R (human) (Q01726 whole entry): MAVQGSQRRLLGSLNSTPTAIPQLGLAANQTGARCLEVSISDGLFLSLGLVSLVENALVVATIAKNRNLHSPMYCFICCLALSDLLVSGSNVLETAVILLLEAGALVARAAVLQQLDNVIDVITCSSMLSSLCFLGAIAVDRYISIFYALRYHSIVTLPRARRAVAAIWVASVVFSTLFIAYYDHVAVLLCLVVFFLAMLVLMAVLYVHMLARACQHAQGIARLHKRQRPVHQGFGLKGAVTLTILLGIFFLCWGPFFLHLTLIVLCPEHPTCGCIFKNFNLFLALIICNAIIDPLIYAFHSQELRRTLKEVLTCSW

| Substance | cAMP EC50 [1] | cAMP EC50 [2] [nM] | cAMP EC50 [3] [nM] | cAMP EC50 [4] [nM] | cAMP Kb [2] | cAMP Kb [3] |
| --- | --- | --- | --- | --- | --- | --- |
| Ac-1-Nal-Arg-c(Cys-D-Ala-His-D-Phe-Arg-Trp-Cys)-NH2 (peptide; unit assumed) | 8.67 nM | 4.21 | 0.363 | 1320 |  |  |
| Ac-2-Nal-Arg-c(Cys-D-Ala-His-D-Phe-Arg-Trp-Cys)-NH2 (peptide; unit assumed) | 9.66 nM | 6.11 | 0.275 | 1730 |  |  |
| Ac-Arg-c(Asp-His-D-Phe-Arg-Trp-Ala-Lys)-NH2 (peptide; unit assumed) | 1.39 nM | 2.89 | 0.055 | 467 |  |  |
| Ac-Arg-c(Cys-D-Ala-His-D-2-Nal-Arg-Trp-Cys)-NH2 (peptide; unit assumed) | 193 nM |  |  | 1110 | 5.72 nM | 1.58 nM |
| Ac-Arg-c(Cys-D-Ala-His-D-Phe-Arg-Trp-Cys)-NH2 (peptide; unit assumed) |  |  |  | 1630 |  |  |
| Ac-Arg-c(Cys-D-Ala-His-D-Phe-Arg-Trp-Pen)-NH2 (peptide; unit assumed) | 48.3 nM | 13.3 |  | 10000 |  |  |
| Ac-CEH[d2Nal]R[1Nal]ACPPKD-NH2 (disulfide 1-8) [listing 1 of 2 here] | 269 |  |  |  | 105 | 5.92 |
| Ac-CEH[d2Nal]R[1Nal]ACPPKD-NH2 (disulfide 1-8) [listing 2 of 2 here] |  |  |  | 104 |  |  |
| Ac-CEH[d2Nal]R[2Nal]ACPPKD-NH2 (disulfide 1-8) [listing 1 of 2 here] | 33.6 |  |  |  | 140 | 12.2 |
| Ac-CEH[d2Nal]R[2Nal]ACPPKD-NH2 (disulfide 1-8) [listing 2 of 2 here] |  |  |  | 66.9 |  |  |
| Ac-Cha-c(Asp-His-D-2-Nal-Arg-Trp-Gaba-Lys)-NH2 (peptide; unit assumed) | 1.27 nM |  |  | 0.736 | 3.02 nM | 0.442 nM |
| Ac-D-Arg-c(Cys-D-Ala-His-D-Phe-Arg-Trp-Cys)-NH2 (peptide; unit assumed) |  |  |  | 1020 |  |  |
| Ac-D-Arg-c(Cys-D-Ala-His-D-Phe-Arg-Trp-Pen)-NH2 (peptide; unit assumed) | 26.5 nM | 10.5 |  | 2440 |  |  |
| Ac-Nle-c(Asp-His-D-2-Nal-Arg-Trp-Ala-Lys)-NH2 (peptide; unit assumed) | 0.619 nM |  |  |  |  |  |
| Ac-Nle-c(Asp-His-D-2-Nal-Arg-Trp-Lys)-β-Ala-Tyr-Gly-Arg-Lys-Lys-Arg-Arg-Gln-Arg-Arg-Arg-NH2 (peptide; in nM (unit assumed)) |  |  |  |  | 220 | 4.07 |
| Ac-Nle-c(Asp-His-D-2-Nal-Arg-Trp-Lys)-β-Ala-β-Ala-Tyr-Gly-Arg-Lys-Lys-Arg-Arg-Gln-Arg-Arg-Arg-NH2 (peptide; in nM (unit assumed)) | 1.39 |  |  |  | 16.2 | 7.94 |
| Ac-Nle-c(Asp-His-D-2-Nal-Arg-Trp-Lys)-β-Ala-β-Ala-Tyr-Gly-Arg-Lys-Lys-Arg-Arg-Gln-Arg-Arg-Arg-NH2 (peptide; unit assumed) |  |  |  | 0.839 |  |  |
| Ac-Nle-c(Asp-His-D-2-Nal-Arg-Trp-β-Ala-Lys)-NH2 (peptide; unit assumed) | 0.913 nM |  |  |  |  |  |
| Ac-Nle-c(Pen-D-Ala-His-D-Phe-Arg-Trp-Cys)-NH2 (peptide; unit assumed) |  | 1.89 | 0.531 |  |  |  |
| Ac-Tyr-Arg-c(Cys-D-Ala-His-D-Phe-Arg-Trp-Cys)-NH2 (peptide; unit assumed) |  | 2.39 |  | 1540 |  |  |
| Ac-c(Cys-Glu-His-D-2-Nal-Arg-Bal-Ala-Cys)-Pro-Pro-Lys-Asp-NH2 (peptide; in nM (unit assumed)) | 690 |  |  |  | 70.7 | 4.56 |
| Ac-c(Cys-Glu-His-D-2-Nal-Arg-Bal-Ala-Cys)-Pro-Pro-Lys-Asp-NH2 (peptide; unit assumed) |  |  |  | 177 |  |  |
| Ac-c(Cys-Glu-His-D-2-Nal-Arg-Trp-Ala-Cys)-Pro-Pro-Lys-Asp-β-Ala-Tyr-Gly-Arg-Lys-Lys-Arg-Arg-Gln-Arg-Arg-Arg-NH2 (peptide; in nM (unit assumed)) | 6.3 |  |  |  | 70 | 1.66 |
| Ac-c(Cys-Glu-His-D-2-Nal-Arg-Trp-Ala-Cys)-Pro-Pro-Lys-Asp-β-Ala-Tyr-Gly-Arg-Lys-Lys-Arg-Arg-Gln-Arg-Arg-Arg-NH2 (peptide; unit assumed) |  |  |  | 38.2 |  |  |
| Hydantoin(C(O)-(A6c-Nle))-c(Cys-D-Ala-His-D-Phe-Arg-Trp-Cys)-NH2 (peptide; unit assumed) |  |  | 1.8 |  |  |  |
| Hydantoin(C(O)-(Ala-Gly))-c(Cys-D-Ala-His-D-Phe-Arg-Trp-Cys)-NH2 (peptide) |  |  |  | 516 |  |  |
| Hydantoin(C(O)-(Ala-Gly))-c(Cys-D-Ala-His-D-Phe-Arg-Trp-Cys)-NH2 (peptide; unit assumed) | 17.6 nM | 2.23 | 0.241 |  |  |  |
| Hydantoin(C(O)-(Arg-Gly))-c(Cys-D-Ala-His-D-Phe-Arg-Trp-Cys)-NH2 (peptide) |  |  |  | 3560 |  |  |

| Substance | cAMP EC50 [1] | cAMP EC50 [2] [nM] | cAMP EC50 [3] [nM] | cAMP EC50 [4] [nM] | cAMP Kb [2] | cAMP Kb [3] |
| --- | --- | --- | --- | --- | --- | --- |
| Hydantoin(C(O)-(Arg-Gly))-c(Cys-D-Ala-His-D-Phe-Arg-Trp-Cys)-NH2 (peptide; unit assumed) | 8.81 nM | 18.2 | 0.503 |  |  |  |
| Hydantoin(C(O)-(Arg-Gly))-c(Cys-Glu-His-D-Phe-Arg-Trp-Cys)-NH2 (peptide) |  |  |  | 4010 |  |  |
| Hydantoin(C(O)-(Arg-Gly))-c(Cys-Glu-His-D-Phe-Arg-Trp-Cys)-NH2 (peptide; unit assumed) | 8.83 nM | 7.86 | 0.0979 |  |  |  |
| Hydantoin(C(O)-(D-Ala-Gly))-c(Cys-D-Ala-His-D-Phe-Arg-Trp-Cys)-NH2 (peptide; unit assumed) | 4.7 nM | 2.22 | 0.309 |  |  |  |
| Hydantoin(C(O)-(D-Ala-Nle))-c(Cys-D-Ala-His-D-Phe-Arg-Trp-Cys)-NH2 (peptide; unit assumed) |  | 2.56 | 1.47 |  |  |  |
| Hydantoin(C(O)-(D-Arg-Gly))-c(Cys-D-Ala-His-D-Phe-Arg-Trp-Cys)-NH2 (peptide; unit assumed) | 11.5 nM | 23.2 | 0.513 |  |  |  |
| Hydantoin(C(O)-(D-Arg-Gly))-c(Cys-Glu-His-D-Phe-Arg-Trp-Cys)-NH2 (peptide; unit assumed) | 18 nM | 17.1 | 0.16 |  |  |  |
| Hydantoin(C(O)-(Gly-Arg))-c(Cys-D-Ala-His-D-Phe-Arg-Trp-Cys)-NH2 (peptide) |  |  |  | 3610 |  |  |
| Hydantoin(C(O)-(Gly-Arg))-c(Cys-D-Ala-His-D-Phe-Arg-Trp-Cys)-NH2 (peptide; unit assumed) | 8.85 nM | 5.17 | 0.599 |  |  |  |
| Hydantoin(C(O)-(Gly-Arg))-c(Cys-Glu-His-D-Phe-Arg-Trp-Cys)-NH2 (peptide) |  |  |  | 335 |  |  |
| Hydantoin(C(O)-(Gly-Arg))-c(Cys-Glu-His-D-Phe-Arg-Trp-Cys)-NH2 (peptide; unit assumed) | 9.97 nM | 3.63 | 0.0687 |  |  |  |
| Hydantoin(C(O)-(Gly-D-Arg))-c(Cys-D-Ala-His-D-Phe-Arg-Trp-Cys)-NH2 (peptide) |  |  |  | 9840 |  |  |
| Hydantoin(C(O)-(Gly-D-Arg))-c(Cys-D-Ala-His-D-Phe-Arg-Trp-Cys)-NH2 (peptide; unit assumed) | 7.53 nM | 11.6 | 0.435 |  |  |  |
| Hydantoin(C(O)-(Gly-D-Arg))-c(Cys-Glu-His-D-Phe-Arg-Trp-Cys)-NH2 (peptide; unit assumed) | 12.9 nM | 10.3 | 0.125 |  |  |  |
| Hydantoin(C(O)-(Gly-Gly))-c(Cys-D-Ala-His-D-Phe-Arg-Trp-Cys)-NH2 (peptide) |  |  |  | 201 |  |  |
| Hydantoin(C(O)-(Gly-Gly))-c(Cys-D-Ala-His-D-Phe-Arg-Trp-Cys)-NH2 (peptide; unit assumed) | 14.2 nM | 2.46 | 0.336 |  |  |  |
| Hydantoin(C(O)-(Gly-Gly))-c(Cys-Glu-His-D-Phe-Arg-Trp-Cys)-NH2 (peptide) |  |  |  | > 10000 |  |  |
| Hydantoin(C(O)-(Gly-Gly))-c(Cys-Glu-His-D-Phe-Arg-Trp-Cys)-NH2 (peptide; unit assumed) | 124 nM | 8.05 | 0.214 |  |  |  |
| Hydantoin(C(O)-(Leu-Nle))-c(Cys-D-Ala-His-D-Phe-Arg-Trp-Cys)-NH2 (peptide; unit assumed) |  | 9.68 | 1.83 |  |  |  |
| Hydantoin(C(O)-(Nle-Gly))-c(Cys-D-Ala-His-D-Phe-Arg-Trp-Pen)-NH2 (peptide) |  |  |  | 352 |  |  |
| Hydantoin(C(O)-(Nle-Gly))-c(Cys-D-Ala-His-D-Phe-Arg-Trp-Pen)-NH2 (peptide; unit assumed) | 17 nM | 21.5 | 0.584 |  |  |  |
| Hydantoin(C(O)-(Nle-Gly))-c(Cys-Glu-His-D-Phe-Arg-Trp-Cys)-NH2 (peptide) |  |  |  | > 10000 |  |  |
| Hydantoin(C(O)-(Nle-Gly))-c(Cys-Glu-His-D-Phe-Arg-Trp-Cys)-NH2 (peptide; unit assumed) | 54.3 nM | 12.2 | 0.177 |  |  |  |
| Hydantoin(C(O)-(Val-Nle))-c(Cys-D-Ala-His-D-Phe-Arg-Trp-Cys)-NH2 (peptide; unit assumed) |  | 4.61 | 0.977 |  |  |  |
| Nle-c(Asp-His-D-2-Nal-Arg-Trp-Lys)-β-Ala-Tyr-Gly-Arg-Lys-Lys-Arg-Arg-Gln-Arg-Arg-Arg-NH2 (peptide; in nM (unit assumed)) |  |  |  |  | 207 | 18.5 |
| c[Hydantoin(C(O)-(Glu-D-Ala))-His-D-Phe-Arg-Trp-Lys]-NH2 (peptide; unit assumed) |  | 22.3 | 3.62 |  |  |  |
| c[Hydantoin(C(O)-(Ile-Cys))-D-Ala-His-D-Phe-Arg-Trp-Cys]-NH2 (peptide; unit assumed) |  | 8.51 | 1.85 |  |  |  |
